Target: T1, BMC07 (uncultured bacterium (metagenome))
T1 chain: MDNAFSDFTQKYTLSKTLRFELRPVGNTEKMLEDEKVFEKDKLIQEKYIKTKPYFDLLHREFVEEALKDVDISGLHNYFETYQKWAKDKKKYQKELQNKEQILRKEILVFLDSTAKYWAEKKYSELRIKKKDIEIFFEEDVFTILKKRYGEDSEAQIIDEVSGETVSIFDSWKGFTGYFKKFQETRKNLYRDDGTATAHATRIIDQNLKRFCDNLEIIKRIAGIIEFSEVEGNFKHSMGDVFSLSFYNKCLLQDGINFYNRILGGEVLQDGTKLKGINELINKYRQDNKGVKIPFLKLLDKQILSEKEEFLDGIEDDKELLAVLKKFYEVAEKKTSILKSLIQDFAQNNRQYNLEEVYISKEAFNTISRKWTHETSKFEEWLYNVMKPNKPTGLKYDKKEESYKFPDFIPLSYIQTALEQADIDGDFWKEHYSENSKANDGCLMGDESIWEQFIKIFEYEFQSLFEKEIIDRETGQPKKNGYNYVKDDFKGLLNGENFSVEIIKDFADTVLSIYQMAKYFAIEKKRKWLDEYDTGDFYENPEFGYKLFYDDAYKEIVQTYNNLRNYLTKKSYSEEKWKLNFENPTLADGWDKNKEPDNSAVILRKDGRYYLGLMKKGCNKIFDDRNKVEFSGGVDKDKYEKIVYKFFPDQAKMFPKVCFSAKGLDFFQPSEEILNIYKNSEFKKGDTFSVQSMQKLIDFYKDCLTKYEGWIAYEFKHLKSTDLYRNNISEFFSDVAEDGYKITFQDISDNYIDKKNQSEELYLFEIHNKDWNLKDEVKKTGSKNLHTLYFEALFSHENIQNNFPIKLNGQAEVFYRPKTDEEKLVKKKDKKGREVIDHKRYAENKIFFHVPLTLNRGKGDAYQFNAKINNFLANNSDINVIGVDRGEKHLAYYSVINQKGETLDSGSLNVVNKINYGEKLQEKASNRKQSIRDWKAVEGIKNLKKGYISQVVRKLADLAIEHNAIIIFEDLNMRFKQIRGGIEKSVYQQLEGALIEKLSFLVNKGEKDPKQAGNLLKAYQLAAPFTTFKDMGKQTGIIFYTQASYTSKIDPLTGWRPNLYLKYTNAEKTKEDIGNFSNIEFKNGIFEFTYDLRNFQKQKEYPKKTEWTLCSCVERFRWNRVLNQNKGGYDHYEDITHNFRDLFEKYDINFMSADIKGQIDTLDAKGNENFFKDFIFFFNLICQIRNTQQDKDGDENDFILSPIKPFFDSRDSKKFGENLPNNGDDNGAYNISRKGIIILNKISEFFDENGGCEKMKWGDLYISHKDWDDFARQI
Assay: cell_activity; PAM not stated; E. coli depletion, 30 C
Outline: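 E. coli carrying arabinose-induced (0.2%) BMC nuclease, grown at 30° C., made electrocompetent and electroporated with 50-100 ng plasmid carrying gRNA against malQ. Transformants plated on selective M9-glucose agar with kanamycin/ampicillin (± nourseothricin), and growth scored after 48 h at 30° C.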

B1: malQ gRNA (BMC stem-loop + 24 nt spacer) ; malQ protospacer (ssRNA ; dsDNA)
RNA: GAUUUCUACUAUUGUAGAUGUGGCGGUACGUUGAUGCAUCGCG
DNA 1: GTGGCGGTACGTTGATGCATCGCG
DNA 2: CGCGATGCATCAACGTACCGCCAC
Q: For B1, which activity is on record?
A: > 99.9 % colony reduction

Source: patent publication US20250277199, “NOVEL CRISPR-CAS NUCLEASES FROM METAGENOMES” (Brain Biotech AG, published 2025)
